A short description of assay [1]: TTA-ADH coupled assay, screen of purified TTAs on 2-nitro-benzaldehyde. In kind it is biochemical. The conditions noted are these: substrate 3, TTA-ADH coupled assay. How it is done: High-throughput screening of purified TTAs was performed with a TTA-ADH coupled assay using purified TTA and commercially available alcohol dehydrogenase from S. cerevisiae purchased from MilliporeSigma. Aldehyde stocks were prepared in 50-100 mM solutions in DMSO or acetonitrile. Reaction mixtures were prepared in a 96-well plate with 100 μL of 100 mM phosphate buffer pH 7.5, 0.5 mM NADH, 0.4 mM PLP, 15 mM MgCl2, and 100 mM L-Thr with the addition of 0.25 mM to 1 mM aldehyde depending on the background absorbance at 340 nm (Table 4), 10 U ScADH, and 0.25 μM purified TTA unless otherwise specified. Reactions were initiated with the addition of enzyme. […] The following controls were included for every assay: reaction mixture without aldehyde, without TTA, and without enzyme (TTA or ADH). Rates were calculated by identifying the linear region at the beginning of the kinetic run and converting the depletion in absorbance to the depletion of mM NADH using an NADH standard curve.
Once purified, we identified the putative TTAs with high activity and further characterized them for their L-Thr affinity and substrate scope. We first screened each purified enzyme using the TTA-ADH coupled assay with 2-nitro-benzaldehyde, 3, the best performing substrate from the screen of ObiH that was not a substrate of the ScADH. […] With this evidence as well as well-aligned, predicted AlphaFold structures, we assumed the impact of the SUMO tag would be minimal for all TTAs screened and moved forward with additional enzyme characterization.

For the next assay, the system named is wild-type E. coli MG1655. Nature of the assay: β-OH-nsAA biosynthesis during aerobic fermentation in wild-type E. coli MG1655. It counts as cell-based, Escherichia coli. To be noted: SUMO-tagged construct, 1 mM 3, 20 h. How it is done: (§1) Metabolites of interest were quantified via high-performance liquid chromatography (HPLC) using an Agilent 1260 Infinity model equipped with a Zorbax Eclipse Plus-C18 column. To quantify aldehyde and β-OH-nsAAs, an initial mobile phase of solvent A/B=95/5 was used (solvent A, water+0.1% TFA; solvent B, acetonitrile+0.1% TFA) and maintained for 5 min. A gradient elution was performed (A/B) as follows: gradient from 95/5 to 50/50 for 5-12 min, gradient from 50/50 to 0/100 for 12-13 min, and gradient from 0/100 to 95/5 for 13-14 min. A flow rate of 1 mL min-1 was maintained, and absorption was monitored at 210, 250 and 280 nm.
(§2) For screening TTA activity in aerobically growing cells, we inoculated strains transformed with plasmids expressing TTAs into 300 μL volumes of MOPS EZ Rich media in a 96-deep-well plate with appropriate antibiotic added to maintain plasmids (50 μg/mL kanamycin (Kan)). Cultures were incubated at 37° C. with shaking at 1000 RPM and an orbital radius of 1.25 mm until an OD600 of 0.5-0.8 was reached. OD600 was measured using a SPECTRAMAX® i3× plate reader. At this point, the TTAs were induced with addition of 0.2 nM aTc for TTA expression. Then, 2 h following induction of the TTAs, 1 mM aldehyde was added to the culture. Cultures were then incubated over 20 h at 30° C. with metabolite concentration measured via supernatant sampling and submission to HPLC. […]

The test system of another assay is E. coli RARE strain. Nature of the assay: β-OH-nsAA biosynthesis during aerobic fermentation in E. coli RARE strain. It counts as cell-based, Escherichia coli. To be noted: 1 mM 3, 20 h. The method, then: as §1, §2

The record followed here is patent US20250215467A1, “L-THREONINE TRANSALDOLASES AND USES THEREOF” (University of Delaware, priority 2022, published 2025).

B1: PbTTA: L-threonine transaldolase, SEQ ID NO: 16, Parachlamydiales bacterium, MBN2478762.1 (protein, listed as Parachlamydiales bacterium)
chain: METSLKDFETILHLINKEEIDSNDTIHMTANENIMSKLSKHYLKSTLSYRYHVGMFDDQKNLTVSRSCLIKNSLMLRCLSPIFLLEQQAREYVKKMFFAEYADFRPLSGMHTVFCILSTLTKPNDRVYVFTTESVGHAATVSLLKSLGRKVSFIPFCEKKLDIDLEKLSKQILIEKPNAILFDFGTPFYPLPIREIREIVGNDVKMIYDASHVLGLIAGGQFQNPLLEGCDVLIGNTHKTFPGPQKGMILYKNKSLGKEIATEIFKSAISAQHTHHAIALYVTIIEMYIHGKEYANQIIKNNHALSQALINEGFKIFKRKNQFSLSHMIAITGDFPIDHHVACADLHNSNISTNSRILYDFPAVRIGVQEVTRKGMKEKDMVQLAKFFKEIILDRKNISSKIKEFNNKFNSIEYSLDEIYEKLF
B1: in assay [1], the “activity on 2-nitro-benzaldehyde relative to ObiH” value is “comparable to or better than ObiH”. The β-OH-nsAA titer in the assay with wild-type E. coli MG1655 (MG1655, 100 mM L-Thr supplemented) worked out at 0.47 ± 0.04 mM; with wild-type E. coli MG1655 (MG1655, physiological levels of L-Thr), 0.09 ± 0.01 mM; in the assay on E. coli RARE strain (100 mM L-Thr), 0.61 ± 0.04 mM; in the assay on E. coli RARE strain (natural L-Thr levels) it was 0.13 ± 0.01 mM.
